Experimental data: patent publication US20150218285A1 (TORAY INDUSTRIES, published 2015)

How the values were obtained:
[1] = biological target: T1, CAPRIN-1 protein on the cell surface of human cancer cells (human, UniProt Q14444 2-709); assay: cell-based or functional assay
T1 sequence (looked up): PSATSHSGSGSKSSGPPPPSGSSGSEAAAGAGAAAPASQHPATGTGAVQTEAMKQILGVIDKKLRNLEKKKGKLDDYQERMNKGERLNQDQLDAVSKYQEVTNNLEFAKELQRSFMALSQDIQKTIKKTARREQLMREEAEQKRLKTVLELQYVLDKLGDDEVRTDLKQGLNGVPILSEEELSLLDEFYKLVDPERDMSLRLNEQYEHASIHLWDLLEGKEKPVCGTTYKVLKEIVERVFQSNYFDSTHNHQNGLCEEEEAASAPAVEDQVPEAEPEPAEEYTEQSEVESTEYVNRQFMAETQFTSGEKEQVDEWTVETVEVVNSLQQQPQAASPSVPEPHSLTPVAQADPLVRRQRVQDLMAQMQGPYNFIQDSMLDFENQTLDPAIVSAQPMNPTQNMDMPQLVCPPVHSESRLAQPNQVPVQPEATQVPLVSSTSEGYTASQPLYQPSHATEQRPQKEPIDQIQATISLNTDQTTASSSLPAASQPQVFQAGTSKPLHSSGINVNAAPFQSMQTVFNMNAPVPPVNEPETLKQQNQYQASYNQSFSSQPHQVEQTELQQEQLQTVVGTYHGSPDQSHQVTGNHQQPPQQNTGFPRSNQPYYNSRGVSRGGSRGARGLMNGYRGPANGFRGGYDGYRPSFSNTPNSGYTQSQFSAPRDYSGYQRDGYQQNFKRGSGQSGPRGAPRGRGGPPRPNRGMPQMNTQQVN

[2] = biological target: T1, CAPRIN-1 protein on the cell surface of …; assay: flow cytometry on Hep3B, HepG2, SK-Hep-1, SW480; culture supernatant; vs isotype control
Method: Subsequently, four liver cancer cell lines (Hep3 GB, HepG2, SK-Hep-1, and SW480), which were confirmed to express a CAPRIN-1 gene, were investigated for whether or not a CAPRIN-1 protein is expressed on the surfaces of these cells. 1×10⁶ cells of each cell line were centrifuged with a 1.5-mL micro centrifugation tube. To the cells was added the culture supernatant (100 μL) containing any of mouse monoclonal antibodies #1 to #22 against a CAPRIN-1 protein reacting to cancer cell surface produced in Example 4 and mouse-chicken chimeric antibodies #1 to #3 against a CAPRIN-1 protein produced in the above (2), followed by being left to stand on ice for 1 hour. After washing with PBS, the cells were suspended in a FITC-labeled goat anti-mouse IgG antibody (manufactured by Invitrogen Corporation) diluted by 500-fold with PBS containing 0.1% FBS, followed by being left to stand on ice for 1 hour. After washing with PBS, the fluorescence intensity was measured with FACS Calibur available from Becton, Dickinson and Company. Separately, as a control, the same procedure as in above was performed using an iso-type control antibody, instead of the culture supernatants containing the mouse monoclonal antibodies #1 to #22 against a CAPRIN-1 protein and the mouse-chicken chimeric antibodies #1 to #3. As a result, the fluorescence intensity in the cells to which any of the monoclonal antibodies #1 to #22 and the mouse-chicken chimeric antibodies #1 to #3 was added was 20% or more higher than that in the control in every case. Specifically, in the case of using mouse-chicken chimeric antibody #1, the fluorescence intensity was enhanced by 200% or more in both SK-Hep-1 and Hep3B. […] The rate of increase in the fluorescence intensity is represented by the rate of increase in the mean fluorescence intensity (MFI value) in each cell and is calculated by the following calculation formula: […]

B1: human-mouse chimeric anti-CAPRIN-1 antibody #34 (antibody, human IgG1, kappa, V domains shown)
VH: GAELVRPGTSVKVSCKASVYAFTNYLIEWVKQRPGQGLEWIGVINPKSGGTKYNEKFRGKATLTADKSSSTAYMQLSSLTSGDSAVYFCAITGTDYWGQGTTLTVSS
VL: QGTRCDIQMTQTTSSLSASLGDRVTISCSASQGINNYLNWYQQKPDGTVKLLIYYTSSLRSGVPSRFSGSGSGTDYSLTISNLEPEDVATYYCQQYSKLPRTFGGGTKLEIKR
For B1, the “cytotoxicity (ADCC, 51Cr release, human NK cells) on Hep3B, HepG2, SK-Hep-1, SW480” value (“cytotoxicity … SW480” for short) [1] was no less than 20%.

B2: mouse monoclonal antibody #6 (antibody)
chain 1: DAELVKPGASVKISCKASGYTFTDHSIHWVQQKPEQGLEWIGYISPGNGNIKYNEKFKGKATLTADKSSSTAYMQLNSLTSEDSAVYFCKRSLGRGGPYYFDYWGQGTTVTVSS
chain 2: DIVLTQAAPSLPVTPGESVSISCRSSKSLLHSNGNTYLYWFLQRPGQSPQLLIYRMSNLASGVPDRFSGSGSGTAFTLRISRVEAEDVGVYYCMQHREYPVTFGSGPN
With B2 the “rate of increase in mean fluorescence intensity” value (from here on “rate of increase”) [2] was no less than 20% and the “cytotoxicity (ADCC, 51Cr release) on SK-Hep-1” value [1] was no less than 12%.

B3: human-mouse chimeric anti-CAPRIN-1 antibody #26 (antibody, human IgG1, kappa)
heavy: not shown
light: PASSSDVLMTQTPLSLPVRLGDQSSISCRSSQSIVHSNGNTYLEWYLQKPGQSPKLLIYKVSNRFSGVPDRFSGSGSGTDFTLKISRVEPEDLGVYYCFQGSHVPYTSEGDQAEIKLATVAAPSVFIFPPSDEQLKSGTASVVCLLNNFYPREAKVQWKVDNALQSGNSQESVTEQDSKDSTYSLSSTLTLSKADYEKHKVYACEVTHQGLSSPVTKSFNRGEC
With B3 the “ADCC activity on Hep3B, HepG2, SK-Hep-1, SW480” value (shortened to “ADCC activity on Hep3B, HepG2”) [1] was no less than 20%.

B4: human-mouse chimeric anti-CAPRIN-1 antibody #30 (antibody)
heavy: not shown
light: DVQITQSPSYLAASPGETITINCRASKSISKYLAWYQEKPGKTNKLLIYSGSTLQSGIPSRFSGSGSGTDFTLTISSLEPEDFAMYYCQQHNEYPYTFGGGTKLEIKRTVAAPSVFIFPPSDEQLKSGTASVVCLLNNFYPREAKVQWKVDNALQSGNSQESVTEQDSKDSTYSLSSTLTLSKADYEKHKVYACEVTHQGLSSPVTKSFNRGEC
B4 was tested, and the “cytotoxicity … SW480” value [1] was no less than 20%.

B5: human-mouse chimeric anti-CAPRIN-1 antibody #31 (antibody, human IgG1, kappa)
heavy: not shown
light: DVQITQSPSYLAASPGETITINCRASKSISKYLAWYQEKPGKTNKLLIYSGSTLQSGIPSRFSGSGSGTDFTLTISSLEPEDFAMYYCQQHNEYPWTFGGGTKLEIKRTVAAPSVFIFPPSDEQLKSGTASVVCLLNNFYPREAKVQWKVDNALQSGNSQESVTEQDSKDSTYSLSSTLTLSKADYEKHKVYACEVTHQGLSSPVTKSFNRGEC
B5 was tested, and the “cytotoxicity … SW480” value [1] was no less than 20%.

B6: human-mouse chimeric anti-CAPRIN-1 antibody #36 (antibody, human IgG1, kappa)
heavy: not shown
light: QDELSNPVTSGESVSISCRSSKSLLYKDGKTYLNWFLQRPGQSPQLLIYLMSTRASGVSDRFSGSGSGTDFTLEISRVKAEDVGVYYCQQLVEDPLTFGAGTKLELKRTVAAPSVFIFPPSDEQLKSGTASVVCLLNNFYPREAKVQWKVDNALQSGNSQESVTEQDSKDSTYSLSSTLTLSKADYEKHKVYACEVTHQGLSSPVTKSFNRGEC
For B6, the “cytotoxicity … SW480” value [1] was no less than 20%.

B7: human-mouse chimeric anti-CAPRIN-1 antibody #28 (antibody, human IgG1, kappa, V domains shown)
VH: GPDLVKPGASVKISCKASGYSFTAYYMHWVKQSHGKSLEWIGRVNPNNGGTTYNQKFKGKAILTVDKSSSTAYMELRSLTFEDSAVYYCARRIYYGYFDYWGQGTTVTVSS
VL: AFFAVSLGQRATISCKASQSVDYDGDSYMNWYQQKPGQPPKLLIYVASNLESGVPARFSGSGSGTDFTLNIHPVEEEDAATYYCQQSNEDPYTFGGGTKLEIKQ
In the case of B7, the “ADCC activity on Hep3B, HepG2” value [1] is reported as no less than 20%.

B8: human-mouse chimeric anti-CAPRIN-1 antibody #23 (antibody, human IgG1, kappa, V domains shown)
VH: GGGLVKPGGSLKLSCAASGFTFSSYGMSWVRQTPEKRLEWVATISSGGSYTYYPDSVKGRFTISRDNAKNTLYLQMSSLRSEDTAMYYCASLASYYFDYWGQGTTLTVSS
VL: GARCDVQMIQSPSSLSASLGDIVTMTCQASQGTSINLNWFQQKPGKAPKLLIYGASSLEDGVPSRFSGSCFGTDFTLTISSLEDEDMATYFCLQHSYLPPLTFGAGTKLELKR
For B8, the “ADCC activity on Hep3B, HepG2” value [1] was no less than 20%.

B9: human-mouse chimeric anti-CAPRIN-1 antibody #24 (antibody, human IgG1, kappa, V domains shown)
VH: GGGLVKPGGSLKLSCAASGFTFSSYGMSWVRQTPEKRLEWVATISSGGSYTYYPDSVKGRFTISRDNAKNTLYLQMSSLRSEDTAMYYCASLASYYFDYWGQGTTLTVSS
VL: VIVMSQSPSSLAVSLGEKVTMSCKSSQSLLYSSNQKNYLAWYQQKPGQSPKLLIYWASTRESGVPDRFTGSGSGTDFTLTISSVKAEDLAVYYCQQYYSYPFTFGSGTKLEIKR
For B9, the “ADCC activity on Hep3B, HepG2” value [1] was no less than 20%.

B10: mouse-chicken chimeric antibody #3 (antibody, mouse IgG1, V domains shown)
VH: AVTLDESGGGLQTPGGALSLVCKASGFTFSGYDMLWVRQAPGKGLEWVAGIGSTGGGTDYGAAVKGRATISRDNGQSTVRLQLNNLRAEDTATYYCAKVAGGCNSGYCRDSPGSIDAWGHGTEVIVS
VL: AVTQQPASVSANPGETVKITCSGGGSRNYYGWYQQKSPGSVPVTVIYYDDQRPSNIPSRFSGALSGSTSTLTITGVQADDEAVYFCGSADSNTYEGSFGAGTTLTVL
For B10, the “rate of increase” value [2] was no less than 20%.

B11: mouse-chicken chimeric antibody #1 (antibody, mouse IgG1, V domains shown)
VH: AVTLDESGGGLQMSRGGLSLVCKASGFDFSSYQMNWIRQAPGKGLEFVAAINKFGNSTGHGAAVKGRVTISRDNGQSTVRLQLNNLRAEDTAIYFCTKHAYGYCGSGTWCAAGEIDAWGHGTEVIVSS
VL: QAASTQPSSVSANPGETVEITCSGGGSYSYGWFQQKSPGSAPVTVIYYNNKRPSDIPSRFSGSKSGSTGTLTITGVQADDEAVYYCGSGDSTDTAVFGAGTTLTVLG
In the case of B11, the “rate of increase” value [2] is reported as no less than 20%.

B12: human-chicken chimeric antibody #2 (antibody, human IgG1, kappa, V domains shown)
VH: AVTLDESGGGLQTPGGGLSLVCKASGFTFSSFDMGWVRQAPGKGLEFVAQINDAGSRTWYATAVKGRATISRDNGQTTVRLQLNNLRAEDTGTYYCTRGSGYVGAGAIDAWGHGTEVIVSA
VL: AALTQPSSVSANPGETVKITCSGGSGYYGWYQQQKSPGSAPVTVIYQNDKRPSDIPSRFSGSGSGSTNTLTITGVQAEDEAVYFCGRYDSTDSGIFGAGTTLTVLT
B12 was tested, and the “cytotoxicity (ADCC, 51Cr release) on SK-Hep-1” value [1] was no less than 12%.

B13: human-mouse chimeric anti-CAPRIN-1 antibody #29 (antibody, human IgG1, kappa)
heavy: not shown
light: GTCGDIVMSQSPSSLAVSAGEKVTMSCKSSQSLLNSRTRKNYLAWVQHKPGQSPRLLIYWASTRESGVPDRFTGSGSGTDFTLTISSVQAEDLAVYYCRQSYNLVTFGAGPSTVAAPSVFIFPPSDEQLKSGTASVVCLLNNFYPREAKVQWKVDNALQSGNSQESVTEQDSKDSTYSLSSTLTLSKADYEKHKVYACEVTHQGLSSPVTKSFNRGEC
With B13 the “ADCC activity on Hep3B, HepG2” value [1] was no less than 20%.

B14: human-mouse chimeric anti-CAPRIN-1 antibody #25 (antibody, human IgG1, kappa, V domains shown)
VH: GPGLVQPSQSLSITCTVSGFSLTTYDLHWVRQSPGKGLEWLGVIWSGGSTDYNAAFISRLSISKDNSKSQVFFKMNSLQANDTAIYYCARNYGYSAWFAYWGQGTLVTVSA
VL: DVLMTQTPLSLPVSLGDQASISCRSSQSIVHSNGNTYLEWYLQKPGQSPKLLIYKVSNRFSGVPDRFSGSGSGTDFTLKISRVEAEDLGVYYCFQGSHVPLTFGAGTKLELKR
In the case of B14, the “ADCC activity on Hep3B, HepG2” value [1] is reported as no less than 20%.

B15: human-mouse chimeric anti-CAPRIN-1 antibody #27 (antibody, human IgG1, kappa, V domains shown)
VH: GGGLVQPGGSMRLSCVASGFTFSNSWFNWVRQSPEKGLEWVAEIRLTSDNYAIYYAESVKGRFTISRDDSKSSVYLQMNNLRAEDTGIYYCTRPETARATFAYWGQGTTVTVSS
VL: DVLMTQTPLSLPVSLGDQASISCRSSQSIVHSNGNTYLEWYLQKPGQSPKVLIYKVFNRFSGVPDRFSGSGSGTDFTLKISRVEAEDLGVYYCFQGSHVPRTFGGGTKLNQTG
For B15, the “ADCC activity on Hep3B, HepG2” value [1] was no less than 20%.

B16: mouse-chicken chimeric antibody #2 (antibody, mouse IgG1, V domains shown)
VH: AVTLDESGGGLQTPGGGLSLVCKASGFTFSSFDMGWVRQAPGKGLEFVAQINDAGSRTWYATAVKGRATISRDNGQTTVRLQLNNLRAEDTGTYYCTRGSGYVGAGAIDAWGHGTEVIVS
VL: AALTQPSSVSANPGETVKITCSGGSGYYGWYQQQKSPGSAPVTVIYQNDKRPSDIPSRFSGSGSGSTNTLTITGVQAEDEAVYFCGRYDSTDSGIFGAGTTLTVL
With B16 the “rate of increase” value [2] was no less than 20%.
